The values that follow come from the NTF2 design screens of Basanta et al. (2020).

This data set is described as follows: protease stability score; higher = more stable; yeast display proteolysis, trypsin and chymotrypsin.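 Further: relative to predicted unfolded state with 0 unfolded-like and 1 meaning tenfold more protease.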
With “DEKEEEYKEMIRIMVEYLETGNEEDMNRLLDPHTKTEYHQGDKSDEFHGREEFMRLWQELGIDHFRVRDVDIVDGRVRIESELIVGDKRFNSYFFLIVVNGRATSASIHVE”, the protease stability score was determined as 2.27.
The value for “DEKEEFMKKLSKLFVELWITGNEEIFNKLMDPNTRSDVNGVENIGRDEIIRFWKEWRRRFGIKHIEVEHVHAIGDKIEIHGIQKAENHHTEIHIRVNVVDGRIREVEVRTH” was 2.26; that for “DEKEEFTRRFAQILIELWKTGDEEDMNNNMDPDVQNHSEFNGREVHLIGMELYVEHSEQWLNRVKNARIIWRHVDAQGDKILIHGDLIVNGKRIHVELDFYIVNGRIKSITIHER” was 2.02.
With “DEKEEHFTTMMEIWLEIFRTGDWERLEKLMDPNVRHREVVDGRHLHLHGMENVSRLLHERENKLGANHIDLTHADIVNGRASIEGRVNYGDKRHKIRFDIHIVNGRVQHIQDIKI” the figure was -0.034.
With “DEKEEHLDELARLFWEVHHTGNEEVFEELFDPRMRLIFNGQQYIGMEKAVKIESRVKNITVRLETYRVINGRIEIHENWRQGEKEIKFEIRIVVIDGVAKEMERIFREK” the figure was 1.09; with “DEKEEHSKELVRLILRLILTGDEEILEDLMDPNVRANIDGREVHGWHEFVRILEKFLKEWRIHTTSLKRIRIIGDKAEVDLHEVGIVNGKKLEQDFHIHIEFVNGRLKEVHIEIR”, 1.69; with “DEKEEILRQIMELMLRLLLTGDEDRLTELIDPNVRVVFEGRTYHGMDEVTELWKEIRIDSFRFRDVKNVGDKARLHGEQKVRVGNYSHEHKSEYQLFVVNGRAKSLEIRWH”, 1.31.
“DEKEEILVDLFKHFLEAMLTGDEEQVNRLVDPNARHDIDGVEHHGWEFLEWFLSRVDHIELLEVKRVRNIDGRIEADLHIDITVNGKKERHDVEVHIVIIDGVFHSIKVIKH” returned a protease stability score of 2.23.
The value for “DEKEELSKRAFERMLHWLETGDFDKFERYADPNVKTVIGDKYFIGRERVSRTVLHWLEVLGVDHRHVEDSDVHTFENHAVMDLHTRVHVDGQDREIRFILLVTKVNGRWNVTSIKIEIR” was 0.661.
With “DEKEELTRKLLELLLLAWSTGDEEVLMMLADPDVRITQGDKITHGRDELRREIEEIWRKFGADHIEVEPEDSRVQGDKVNNRTTLWLRINGRTIDFNVHVIIVIVNGVIHSMRFEIR” the figure was 2.35; with “DEKEELVEYFWEVFLKSLRTGNWHEFVKMFDPDAKSHINGVHSIGRDHIATLILREHEEIRYTEIRERHIEVQGDKIHVHTEVDMFVGDKRIRTERHIHITIVNGRIKSMRVEIR”, 0.958; with “DEKEETIERLIRMLWHAWRTGDEDSLRNLFDPHAKLHVDGRDLVGMEMVYEDFHRQLNEWRINDLVIRTFRVQGDKIEIKGEIFGDINGRHTRHEVIIHIVVVDGRIKSLEVIND”, 1.66.
The sequence “DEKEEVLEKLDRLVMEAMETGDWELITKNFDPNTRITINGRELIGRAEWHRFLEEMRHSIKDYRIRSKREYDGRIEVDTESHFIVNIDGKRIEYETRTHVIMTKIDGKWLFTSVEVR” had a protease stability score of 1.97.
Sequence “DEKEHELTRMIRMIETLLRTGDFEELEKLMDPDVRLDIDGKHLVGRHDLREFFLELGVKHTDTKEIHVIGDKAFLHTEIHVDGRTTKVIIIMHKINGRWIITSTHIRHH” registered a protease stability score of 1.47.
In turn, “DEKEHFAKWFIHVLIRHWYTGDEETTHRLADPNARYEIGDKELIGMDELFRHLEQLRVDSIDYRVEDIRFQGEKIHIHGKIRVEGVVNGQHFHLTFDLILHVEKINGRWHFREMQTR” displayed a protease stability score of 1.25.
In turn, “DEKEHLLKLAIDILKHLHETGDETLAEELADPNTRVHYGDKHIHGRQRYIEHLHRERRRLGVDHSQIELHNWEVVDGRLHLDGKLTLLVGDKRIEFKVRIIMDKVNGRWILHSLEFH” gave a protease stability score of 0.608.
With “DEKEKDFHHMLEDWRWATRTGDEDTLKDLMDPNAKVRYGDYEFHGREHVIQFYQQIRFHEIHVHHVRVIGNKLEADTRVRIEYNGRELSFETHLVLLKIDGKWVMKIHEID” the figure was 2.13; with “DEKEKEFKEVWKRILEILLTGDEEELTRMADPHARLDVNGVERHGREEMSKYIRHWHEKVKNARFWIHSIHVVGEKVVIDTEIQIGDKRIRYIVHFIVVDGRIKEIHVHEEII”, 2.12; with “DEKEKESEDLAEIILKLWATGDEEIFEHLLDPNVWMIDEDEVFHGMEKVSEFLLRLREKLGVDHFRVHHIEIQGDKVHMDIRLEVNGKILKTHIRVIIINGRIHTVEIRIH”, 2.37.
With “DEKEKIVHEMFKLWVDLLLTGDEEILRRMLDPNTRLDFNGVDVIGMERIADHLRHWRFHDIRIEHMRVYNGRVEVETRLDGYWDGRRIRTTSHILLVVVGDKIKEIHIKID” the figure was 2.38.
With “DEKEKLKQLARKFHKAMQTGDEDELKKNVDENVRADYGDRRYHGSEELAKWLREMKTKVDHLSMTIKDIRVKGDRAEIELEMTFDHNGRQETRQFTLQAQVHNGSLKIVQIRQS” the figure was 1.47; with “DEKEKVVRIAQEIINTIIHTGDERILEEFIDPNVRFYFNGQEFHGRELMSEIEKKHRDRFKNLRIFVEDTHVEVYGEWLRIKVHLRLEIGDKRHELHLDIIALKVNGRWLNKSAELRVE”, 1.64; with “DEKERESEEFIRRFISVYETGDWKTMFELADPHTRMIDIVNGRDIEIIGREAIRHIFEERMRLLGIKHFHIDHSSRQGNKYHQKVTIRVDGQEIEAHVHVIVVDGVLKQIEVRSK”, 1.06.
The sequence “DEKERKLLEIARLLIESFLTGDWKTFHEMLDPHVRFEVGDKEAHGWEEALRVWDHLKEEMRITDLDIHHYTVQGDKVHIDSRLHGEIDGKRVTFRTRIVVIVVNGRVKQVSYKIT” gave a protease stability score of 1.23.
The value for “DEKERLADEILEDIRKSVHTGDWDEYLRLLDPNVRTVINGKTVHGREEIKELMERLGIDHHHLRVDHWEIIDGKVHVEIEVTLQIGDKHFSRSSHILIMKFNGQWIVHTFRLH” was 1.73; that for “DEKERLAHEFHERFLEALMTGDEHHIEEMFDPNARTRQGDKTFHGRERSLHLISEWWRQIDVVRDIHIHEIKFQGDFLSFHLMIDGEINGRRDELVVHVESRKIDGKWFLHSVTYT” was 0.497.
On to “DEKHEFARRYYELEKKYLKTGDEEEWLKYVDPHVRVHVGDKDLVGMELAEEQWREIRYHHIDDKDMRIQGDKLHVKGRVDGTIGDKRHRVDMEVHIEIIDGRFKRIEVRIK”, for which the protease stability score amounted to 0.76.
In turn, “DEKHEFVRRRIEEWLEALRTGDEDTLHRLADPNVKMNINGVERHGRESMLSLFEEFGVNHFHIRDVKIQGEKSFIDGEIRYGDKIHRVQMEIQVIDGVLESHKLRVH” displayed a protease stability score of 1.13.
Turning to “DEKHEIMREALKEFITEQRTGNEDRIKQLMDPNVRIFVGDKEFHGREEVMRILKILRHELGVDNIFIILRSMHIVDGRVHLDVELHINGRIFKSELVILKIDGQWLIRSIHIE”, the protease stability score was 1.66.
With “DEKHELNEKALSEFLKIVHTGDERLVREMMDPHVRVHINGRDHHGMDDAVELMKFIKNMTVILTDKKIQGDKLEVHGIWIYNGVREETEIISEKVDGRWVIREVRHD” the figure was 1.07.
With “DEKHELTKRLVELFLHAMHTGNEDLLHEYMDPNVKLVVNGQEHHGRELANSVIRRMIEELRLKDSKIKDIEFQGEKVHLDVHLHFRQGDKHITLDARIILLKVDGRWVIESLIFH” the figure was 1.76; with “DEKKAKEAAHRLLEAMVTGDPRKLNENADEDVQVEYGDKSYTGREKLNEWAHEFQKRVDHVRIESIHQRGDTATVKVRVEHNGETDTFVLIVEAHNGRAKRIRQETR”, 1.1; with “DEKKEDIDRMVKEIHTIFATGDEDRFKELLDPNVRVDVDGKKRHGREDATEHFRKWVLTLGIDHSRVHSVHTIDGVVFLEIRFDVNGQTIKVRVLAVKVDGQWLIEEVEIRWK”, 2.38.
The value for “DEKNHLWDEISEIFVQNWVTGDEDSLRHMADPNVRTDINGVELHGMEETNRFIIEELKHARSRVHLEHRDAVNGRIHLQTELYSNVDGQEIRYKTRIILIVVNGRLKEIKFIQH” was 0.581; that for “DEKQDLWRHLLEQFFRWYQTGDEDLLFKYADPHVRFRQGDKEHHGREEMIRMLREHRHHFGADHFKVETMEIQGDKATFVMHDHVNGVDIEIRVHVVVIDGRIRSFKFERH” was 1.34; that for “DEKQEFIERIAKELLDSWLTGDEEHLRNMMDPHVRTDVNGREFHGREETIKAMQILGVDHLEIKDYRVINGRIHANSRMWIGDKQIETHLILRVVNGRVKEIKIEIR” was 1.97.
Sequence “DEKQRDIEEMARRFVEIFHTGDEENYLELADPDMRLDVGDKHYHGREDVHKWLHEELRRIKNATIRIKHIHVQGDKVHLEITIEIGDKHRKSHIHLQIVDGVIKRIEIRWS” registered a protease stability score of 1.09.
With “DEKQVLELIRDVMKHVQNGNQEEVKKHGKPSVEVILFNERYTGPEALVRLAEFAQKLGAQFEYKETRHEGNKVKTKVEVTFGGTTVRYEVEVEAEGGKVVKWEVRASDEFDERVKKS” the figure was 1.29; with “DEKREESERALNHLFKSMLTGDEEDVRKLADPHAKFIINGRSDIGRESVSHHWHRLWRELGVKHLDVRSFRVYDGRVDSKTRVEIGDKEHEMEVYIVKVNGRWHIEELEFR”, -0.12.
With “DEKRKEMEQLARIIIHLWETGDEEKWREYADPNTRLDVDGRNSHGMHNTLEVLRRRLEELGFDHVEMEIKHITVIGDKAQINGKVHLYWNGKTIDVPSEIIIVIINGRLHSIELRHE” the figure was 1.44.
Consider “DEKRKLAEEIMRLLLHAYKTGDEELIHKLADPDTRVIINGVDLHGWEEMNRHLEEIIRQFDHWDLKIRDFRIQGDKYHIHGHLIHIQGDKHIRHDVNFHIVFVNGRQTSNHIDIH”, for which the protease stability score turned out to be 1.41.
With “DEKRKVEERLLELIIEIFRTGDWEWYSELADPNVRVHQGEYHKHGREQASKHLLDELRHLGIKHIDERSYDVIDGQVYWHVRIEVGDKERQMHIRVRIVNGVLQHVHIEIH” the figure was 1.17; with “DEKSDIYHQALRLWIDTMVTGDENLYERLLDPHVRVEIGDKEIHGRERVSEFFKRFAEHLGVDHVELHDFRYQGDYVRLRISIEYNGQHLDTDLIITKINGRWYIHSEKYK”, 1.26; with “DEKSEHILELLRLMLELLVTGDWSMLRKLVDPNARMYYGDKEFHGWEDMVKFIKILLERIDHVEIRLHNSDVQGEKAKSDGTLIERVNGQEVRFDSHIINIVVNGRAKEVRIEVH”, 1.22.
Take “DEKTEEIERFFKKWVEALRTGDWKTLMELLDPNARFDINGREIIGREIYVKILKEELKHFGVTRIHNEVEIKHSDEQGNKLNLDGKLIINWDGKNDETRLILYVLKVDGRWIIEEVRIR”: the protease stability score stood at 1.44.
Sequence “DEKTEHERELSERLLKAILTGDEDLFKELADPNVRIISEIDGRKDESHGWTAWHRIMQSLGFNVMRIDHHELINGVQYVESTLDINGVRRKTHLIIRIINGKVKEVRFSID” yielded a protease stability score of 1.88.
Turning to “DEKTEISEELLKIFVDLLQTGDEDIFQDMMDPRAQVHVNGKRIHGREHIIHWFREAHRHLGVKHTHIHRVEIQGEKVYIDGRLHYNGRDFNTHLIFDVINGRVKSMELRQH”, the protease stability score was 1.09.
